The text below walks through data of patent US9617326B2, “RTRAIL mutant and monomethyl auristatin E conjugate thereof” (Zhejiang University, priority 2012, dated 2017).

The subject of the data set is HEK293 cells. Description: In vitro killing/toxicity (CCK-8) on normal HEK293 cells. Type of data set: cell-based. The settings on record: 32-1000 ng/mL, 96 hours. The source says:
4 types of cells were selected to measure in vitro anti-tumor activity of the rTRAIL mutant and the MMAE conjugate: TRAIL sensitive type (NCI-H460), TRAIL insensitive type (Hela), TRAIL resistant type (MCF-7) and normal cells (HEK293). All of these 4 types of cells had TRAIL death receptor on their surfaces.
Hereinafter, TRAIL sensitive type NCI-H460 cell was taken as an example to give detailed description of the test procedure, including the following steps:
(1) Digesting the NCI-H460 cells into individual cells, followed by diluting to 1×10^4 cells/mL, spreading the cells on 96-well plate (100 μL for each well), and culturing the cells for 24 hours under normal condition.
(2) Diluting N109C, N109C-vcMMAE and S96C-vcMMAE with culture medium respectively, and adding them into the cell plate with final concentrations of 32, 63, 125, 250, 500, 1000 ng/mL for serving as the test groups, while using standard TRAIL (114-281) as the positive control group, using the buffer (used for dissolving the test sample, diluted with the culture medium in a same manner) as the negative control group, and using the culture medium (without adding any solution) as the blank control group. All the control groups and test groups were tested in triplicate. […]

With “TRAIL (114-281): standard TRAIL (114-281) used as the positive control group”, the “toxicity to normal cells” value was “considerably low toxicity”.
